The results in this text go back to patent US20200024610.

Holding throughout (experiment): cell_activity
The subject of data set [1] is TALEN 5' monomer for SEQ 34 site (synthetic construct). To be noted: pair with p4; corn protoplasts; unmethylated region.
Data set [2] concerns TALEN 3' monomer for SEQ 93 site (synthetic construct). To be noted: pair with p3; corn protoplasts; unmethylated region.
Data set [3] relates to TALEN 5' monomer for SEQ 35 site (synthetic construct). To be noted: pair with p2; corn protoplasts; unmethylated region.
The test system of data set [4] is TALEN 3' monomer for SEQ 94 site (synthetic construct). To be noted: pair with p1; corn protoplasts; unmethylated region.

In data set [1], “TCGTGTGACTGCTCCCAAA (double strand) [TALEN site 34]” registered an activity (% integration) of 7.
In data set [2], “TCTACTAAAGAGGTAGCAC (double strand) [TALEN site 93]” came in with an activity (% integration) of 7.
On to “TCTCCTATCATAACGTTTG (double strand) [TALEN site 35]”, for which the activity (% integration) in data set [3] was found to be 16.
“TGAGTTTGAGACCCACCTG (double strand) [TALEN site 94]” yielded an activity (% integration) in data set [4] of 16.
